What was measured:
[1] = biological target: T1, ΔP1 αSyn (alpha-synuclein with residues 36-42 deleted) (UniProt P37840 1-140, deletion of the seven-residue P1 sequence 36GVLYVGS42 (ΔP1)); assay: cell-based or functional assay
[2] = biological target: T2, wild-type alpha-synuclein (WT αSyn) (UniProt P37840 1-140); assay: native MS; native nESI-MS; 20 µM protein, αSyn:P1-peptide 1:10, 20 mM ammonium acetate pH 7.5; details: both partners purified
[3] = biological target: T1, ΔP1 αSyn (alpha-synuclein with residues …); assay: as above; details: both partners purified
[4] = biological target: T2, wild-type alpha-synuclein (WT αSyn); assay: NMR paramagnetic relaxation enhancement (PRE); 100 µM 15N-labelled protein with 100 µM 14N MTSL-labelled peptide; diamagnetic spectra after 1 mM ascorbic acid; 20 mM Tris-HCl, pH 7.5, 200 mM NaCl, 15 °C; details: both partners purified
[5] = biological target: T1, ΔP1 αSyn (alpha-synuclein with residues …); assay: as above; details: both partners purified

t50 of amyloid formation (ThT fluorescence), 100 µM ΔP1 with P1-peptide in 10-fold molar excess, pH 7.5 (aggregation begins within 110 h at equimolar ratio) [1] | stoichiometry N [2] | stoichiometry N [3] | binding result [4] | binding result [5] | Binder
14.4 h | 1 | 1 |  |  | Ac-KTKEGVLYVGSKTKE-NH2 (also called peptide-P1; peptide P1; source: synthetic peptide, bought: Severn Biotech Ltd) [P1-peptide (Ac-KTKE-GVLYVGS-KTKE-NH2)]
 |  |  | binds | binds | CKTKEGVLYVGSKTKE (N-terminal acetylation; MTSL on the thiol group of the introduced N-terminal cysteine; C-terminal amidation, cysteine introduced at the N-terminus for MTSL labelling; observed mass 1995.07 Da after labelling; also called MTSL-labelled peptide-P1; 14N P1-peptide N-terminally labelled with MTSL; source: synthetic peptide, bought: Severn Biotech Ltd; labelled with MTSL, reverse phase HPLC) [MTSL-labelled Cys-P1-peptide (Ac-C-KTKE-GVLYVGS-KTKE-NH2)]
